Paper PMC8034716

target: HLA-A*0201; test: T2 stabilization assay (BB7.2 anti-HLA-A2 staining); details: peptide-pulsed T2 cells; parent: est. 100; read off a plot

percent of parent	Substance
100%	wild type p53 65-73 peptide (…) E4G
89%	wild type p53 65-73 peptide (…) P8A
67%	wild type p53 65-73 peptide (…) V9G
89%	wild type p53 65-73 peptide (…) M2A
72%	wild type p53 65-73 peptide (…) P8G
89%	wild type p53 65-73 peptide (…) M2G
61%	wild type p53 65-73 peptide (…) P3A
47%	wild type p53 65-73 peptide (…) P7G
68%	wild type p53 65-73 peptide (…) A6G
100%	wild type p53 65-73 peptide (…) R1G
84%	wild type p53 65-73 peptide (…) P7A
76%	wild type p53 65-73 peptide (…) E4A
100%	wild type p53 65-73 peptide (…) A5G
65%	wild type p53 65-73 peptide (…) P3G
120%	wild type p53 65-73 peptide (…) R1A
110%	wild type p53 65-73 peptide (…) V9A
